± gives the standard error. Variants at the floor of the assay were thinned out.
B1: glmS ribozyme (parent)
chain: AUAAAAGCGCCAGAACUACAGAAAUGUAGUUGACGAGGAGGAGGUUUAUCGAAUUUUCGGCGGAUGCCUCCAAA

Variants of: B1
Test: self-cleavage kobs at 2500 uM GlcN6P; higher = faster cleavage; RNA array
Conditions: with glucosamine-6-phosphate
In short: (§1)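 kobs was derived by fitting per-tile medians to one- or two-exponential decays after normalising signals to baseline and to non-cleaving reference variants. Those signals came from barcoded ribozyme variants transcribed in situ by E. coli RNA polymerase on sequenced MiSeq chips, followed through a hybridised Cy3 probe at 37 °C and imaged over ~14 h. Glucosamine-6-phosphate (40 μM to 10 mM) in HEPES/KCl/Mg(OAc)2 buffer was flowed in. Weighted Michaelis–Menten fits across concentrations then gave kcat and KM.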

| Variant | self-cleavage kobs at 2500 uM GlcN6P [s⁻¹] |
| --- | --- |
| G13U G38A U55A A64U | < 1e-05 |
| A15U G40A A52C G66U | < 1e-05 |
| C11A C34G A36U G40A A52G A53U | < 1e-05 |
| G35C U49G G62U C71G | < 1e-05 |
| U30C G44U U45G U69G | < 1e-05 |
| G32C A33C U49G | < 1e-05 |
| A6U G44A U56A | < 1e-05 |
| A14G C16G U30G U49C U54A C67G C68U | < 1e-05 |
| A12U A15U U47C | 0.000776 ± 0.00023 |
| A33U C67A U69A | < 1e-05 |
| C10G A36G A52U | < 1e-05 |
| A12C A15U G62A | < 1e-05 |
| U30C G66A C67G | 4.46e-05 ± 1.2e-05 |
| C34U G37A A39C | < 1e-05 |
| A15G U49G C50A G60C | < 1e-05 |
| C34U G63U A64G | 0.000111 ± 3.8e-05 |
| A14U U54C U65G | 0.000411 ± 0.00014 |
| U30G U31C U47C G66A | 2.71e-05 ± 1.2e-05 |
| C16A G37U C61G U69G | 5.77e-05 ± 1.7e-05 |
| G9C U46A C71U | < 1e-05 |
| A6G A42G C67U C70U | < 1e-05 |
| A48C A52G C58U | < 1e-05 |
| C11U A15G G43A C67G | 0.000114 ± 3.9e-05 |

| Variant | self-cleavage kobs at 2500 uM GlcN6P [s⁻¹] |
| --- | --- |
| A12G A53U U55G | 0.000166 ± 2.9e-05 |
| G44A U49C G62U | < 1e-05 |
| C10A C16U A64U | < 1e-05 |
| G29C C34U G35A G40U G59C | < 1e-05 |
| G13A A15U C58G U65G C70G | 7.13e-05 ± 3.5e-05 |
| A12G G43C U45C C61G | < 1e-05 |
| C11A A14G G29U | 5.93e-05 ± 2.7e-05 |
| G32A U57C | 5.22e-05 ± 1.9e-05 |
| G40C U47A G62C | < 1e-05 |
| G38U U45A C71A | < 1e-05 |
| U56A G63U | < 1e-05 |
| A15G G44A U65A | 8e-05 ± 2e-05 |
| C16U A39U G44U C67A | 0.0154 ± 0.0045 |
| G13U U47A C71G | 5.89e-05 ± 1.7e-05 |
| A33U G37A U55A C61U | < 1e-05 |
| A14G A42G G44A U55G | 0.000136 ± 4.1e-05 |
| A14G A33G A36U A42U U46A | < 1e-05 |
| G51A U56C C70G | < 1e-05 |
| U49C U57G | < 1e-05 |
| A36U A39G C67G | < 1e-05 |
| A33U A39C G62C | < 1e-05 |
| C34U U47G G51U | < 1e-05 |
| A6C G40A U46G G51U | < 1e-05 |

| Variant | self-cleavage kobs at 2500 uM GlcN6P [s⁻¹] |
| --- | --- |
| A33U G43U U65C | < 1e-05 |
| A42G G51C G60C C68G | < 1e-05 |
| G9U G40A G60U | < 1e-05 |
| A6C G38A G62U | < 1e-05 |
| C10U C11A C70A | 7.8e-05 ± 2.7e-05 |
| C10U A33U G41U U49C G62C | < 1e-05 |
| G44U U45A U47A | 0.000474 ± 0.0002 |
| U31G A36U C50A C71G | 0.000265 ± 0.00012 |
| A42G G44C C58A C68U | < 1e-05 |
| C8A G13C U46G U56A U69C C70G | < 1e-05 |
| G44A U46A A48U A53C | < 1e-05 |
| U30G G63C A64U | < 1e-05 |
| G37A G38C U56G C70G | 6.06e-05 ± 1.5e-05 |
| A6G A33G A42U G60U | < 1e-05 |
| G29A U57G C70G | 0.000123 ± 5e-05 |
| A12U G62C C70G | < 1e-05 |
| C8G G21U U55G G60U C67G | < 1e-05 |
| A14G U56G C71U | 0.0458 ± 0.019 |
| G7U U30G A33U G44C | < 1e-05 |
| C34U G35A | < 1e-05 |
| A39U A42U U47A | 0.0025 ± 0.0012 |
| A39G G43C A52C | < 1e-05 |
| A15U U30G C68G | 4.51e-05 ± 1.8e-05 |

| Variant | self-cleavage kobs at 2500 uM GlcN6P [s⁻¹] |
| --- | --- |
| G38C U47C U49A | < 1e-05 |
| C19A G32C | 4.68e-05 ± 1.6e-05 |
| G7A A39C U54G U57A C58U G66U | < 1e-05 |
| A39U A42C U45G | 0.000613 ± 0.00019 |
| C8G A36G G38A A52G U65G U69G | 5.4e-05 ± 1.8e-05 |
| C8A G13C A36G U56G C70U | < 1e-05 |
| G35C G43U U69G | < 1e-05 |
| A33G G44A U49G | < 1e-05 |
| A6U C10A C70A | 0.000332 ± 0.00011 |
| C11U G44U C67G | 0.00425 ± 0.0019 |
| A12G C16U G43A U45C | < 1e-05 |
| A6G G40A A48G A53G C67U | < 1e-05 |
| A39G A42U C67U | 9.25e-05 ± 2.6e-05 |
| U56A C58G C67U | 4.09e-05 ± 1.7e-05 |
| C34A C68G | < 1e-05 |
| G9C G40U C67U | < 1e-05 |
| G41C A42U G60C G62C | < 1e-05 |
| A6G A36U A48U C50U | < 1e-05 |
| C16A A33U A52U | < 1e-05 |
| A39U G51C C71G | < 1e-05 |
| G37A A39C G40C G41A U45C G51U C58G | < 1e-05 |
| U30A G40C A53G U56C | < 1e-05 |
| G51U U55C G62A G66C C67U | < 1e-05 |

| Variant | self-cleavage kobs at 2500 uM GlcN6P [s⁻¹] |
| --- | --- |
| G35U G66U C70U | < 1e-05 |
| A6C G9U C70A | < 1e-05 |
| A6G C16G U54C C61A | < 1e-05 |
| C10G A33G G51U | < 1e-05 |
| G32C A36C A39U U69G | < 1e-05 |
| G38U G43A U47C C67U | < 1e-05 |
| A12G G40U C67U | < 1e-05 |
| G26U U30A A52G C71G | 0.000299 ± 0.00014 |
| U30A U46G A53U | 0.000335 ± 9.7e-05 |
| A12C A39G U49C | < 1e-05 |
| A6U G37U G40U | < 1e-05 |
| C10A U47C G62U | < 1e-05 |
| C16U U57A G59C | < 1e-05 |
| G29U U47G C50G G63C | 0.000136 ± 5.4e-05 |
| A39U U46G C70A | 0.000101 ± 2.8e-05 |
| C34A G59A C70A | < 1e-05 |
| A53G G63U C71A | < 1e-05 |
| U30A G41U U55G G59A U69A | < 1e-05 |
| A12U C34A A48U | < 1e-05 |
| A36C G41A U56G G60A C68U | < 1e-05 |
| G13C C61A C68G | < 1e-05 |
| G29U U46A U56A G62U C68U | < 1e-05 |
| C10G C34A A52U | < 1e-05 |

| Variant | self-cleavage kobs at 2500 uM GlcN6P [s⁻¹] |
| --- | --- |
| C16G A39G C71U | 0.0054 ± 0.0016 |
| G35U A36U G43A C50G U69G | < 1e-05 |
| G13C U31A A53G | 0.000107 ± 3.6e-05 |
| A15C C16G U31A A53G C58A | 4.06e-05 ± 1.5e-05 |
| A42U U45C A52G C70U | < 1e-05 |
| G13C G40A G60U | < 1e-05 |
| C8A U31C A42U U65G | < 1e-05 |
| A14C U45A A64U | 4.3e-05 ± 1.9e-05 |
| A14U U45G A53C U65C | < 1e-05 |
| G32A A39U U69A | < 1e-05 |
| A14U G41U U54A | 0.000104 ± 3.2e-05 |
| A6G A42U A48C U54C U69A | < 1e-05 |
| G40A U47C U54C | 0.00058 ± 0.00013 |
| A15U A39C U45A | 0.000454 ± 0.00014 |
| A12C A39G U47C | 0.00269 ± 0.00067 |
| C8A A12U G44U | < 1e-05 |
| C8U G9U G13A G37A G41A | < 1e-05 |
| C11U C34G A52U | < 1e-05 |
| C10G U46G U55A A64C U69G | < 1e-05 |
| A15U G32A A39U C71U | 0.000236 ± 0.00011 |
| G32A U47A C70G | 4.84e-05 ± 2.3e-05 |
| G7C A14C G35C U57G | < 1e-05 |
| A42G U65C | 0.000535 ± 0.00016 |

| Variant | self-cleavage kobs at 2500 uM GlcN6P [s⁻¹] |
| --- | --- |
| C8U G9A U45A U69C | < 1e-05 |
| A39G A53C C70A | 0.000143 ± 4.2e-05 |
| G37U U46G A52U U57A | < 1e-05 |
| A36G A52C C68U | < 1e-05 |
| G32U G66A C70A | 0.00086 ± 0.00036 |
| G7A G9A A14C G44A | < 1e-05 |
| A12C C50G C70A | 0.000246 ± 5.7e-05 |
| U31G G44U G51C C58U G63U | < 1e-05 |
| A14U A42C U54A | < 1e-05 |
| C8U U46G C61U | < 1e-05 |
| G44U U49C C61A | < 1e-05 |
| G9A C34A U49G | < 1e-05 |
| A14U G29U C67G | 6.46e-05 ± 2.8e-05 |
| G13C G41A U45A C70U | 8.8e-05 ± 2e-05 |
| G9A A12C G59C | < 1e-05 |
| U54G C61U C70U | 5.89e-05 ± 1.4e-05 |
| G9U C10G C16U | < 1e-05 |
| G7C G44C C50U G62A C67U C70U | < 1e-05 |
| G40C U47A U65G | 0.000652 ± 0.00017 |
| U30A C58A C67U | 4.25e-05 ± 1.9e-05 |

Variants of: B1
Test: self-cleavage kobs at 10000 uM GlcN6P; higher = faster cleavage; RNA array
Conditions: with glucosamine-6-phosphate
In short: as §1

| Variant | self-cleavage kobs at 10000 uM GlcN6P [s⁻¹] |
| --- | --- |
| A14G C16G U30G U49C U54A C67G C68U | < 1e-05 |
| C11U A15G G43A C67G | 0.000119 ± 3.5e-05 |
| G29C C34U G35A G40U G59C | < 1e-05 |
| A12G G43C U45C C61G | < 1e-05 |
| U49C U57G | < 1e-05 |
| U30G G63C A64U | < 1e-05 |
| C34U G35A | < 1e-05 |
| A39U A42U U47A | 0.00362 ± 0.0011 |
| A6C G9U C70A | < 1e-05 |
| C10G A33G G51U | < 1e-05 |
| G32C A36C A39U U69G | < 1e-05 |
| C10A U47C G62U | < 1e-05 |
| A39U U46G C70A | 0.000162 ± 3.2e-05 |
| A36C G41A U56G G60A C68U | < 1e-05 |
| C10G C34A A52U | < 1e-05 |
| G13C U31A A53G | 0.000294 ± 5.7e-05 |
| C8A U31C A42U U65G | < 1e-05 |
| C11U C34G A52U | < 1e-05 |
| A15U G32A A39U C71U | 0.000208 ± 6.3e-05 |
| A39G A53C C70A | 0.000165 ± 4.3e-05 |

Reference: the supplement of paper PMC7125110
